Assay results: article PMC2767407

Substrate: CN(C)C(=N)NCCC[C@H](N)C(=O)O
Experiment: enzyme kinetics of refolded recombinant enzyme
Assay type: biochemical, Homo sapiens
Details: authors' own initial, unpublished results; assay conditions not told

B1: recombinant human DDAH-2 (Homo sapiens) (protein)
chain: MGTPGEGLGRCSHALIRGVPESLASGEGAGAGLPALDLAKAQREHGVLGGKLRQRLGLQLLELPPEESLPLGPLLGDTAVIQGDTALITRPWSPARRPEVDGVRKALQDLGLRIVEIGDENATLDGTDVLFTGREFFVGLSKWTNHRGAEIVADTFRDFAVSTVPVSGPSHLRGLCGMGGPRTVVAGSSDAAQKAVRAMAVLTDHPYASLTLPDDAAADCLFLRPGLPGVPPFLLHRGGGDLPNSQEALQKLSDVTLVPVSCSELEKAGAGLSSLCLVLSTRPHS
For B1, the Km was 16 µM.
